# Measured values published in patent US11370846B2, “Compositions and methods to regulate Renalase in the treatment of cancer” (Yale University, priority 2014, dated 2022).
# Residue numbers refer to the chain shown, from its start. Like-named read-outs stand apart in the source and are kept apart here.
# B1: 1D-37-10: rabbit anti-renalase monoclonal raised against peptide RP-220 (antigen 1D); heavy chain SEQ ID NO:17, light chain SEQ ID NO:18 (antibody)
# heavy: METGLRWLLLVAVLKGVQCQSVEESGGRLVTPGGSLTLTCTVSGFSLSDYAIIWVRQAPGKGLEYIAIIGSSGDTFYATWAKGRFTISKTSTTVDLKMTSLTAADTATYFCAPRYAGTTDYHDAFDPWGPGTLVTVSSGQPKAPSVFPLAPCCGDTPSSTVTLGCLVKGYLPEPVTVTWNSGTLTNGVRTFPSVRQSSGLYSLSSVVSVTSSSQPVTCNVAHPATNTKVDKTVAPSTCSKPTCPPPELLGGPSVFIFPPKPKDTLMISRTPEVTCVVVDVSQDDPEVQFTWYINNEQVRTARPPLREQQFNSTIRVVSTLPIAHQDWLRGKEFKCKVHNKALPAPIEKTISKARGQPLEPKVYTMGPPREELSSRSVSLTCMINGFYPSDISVEWEKNGKAEDNYKTTPAVLDSDGSYFLYSKLSVPTSEWQRGDVFTCSVMHEALHNHYTQKSISRSPGK
# light: MDTRAPTQLLGLLLLWLPGARCAEVVMTQTPASMEAPMGGTVTIKCQASQNIYNYLSWYQQKPGQPPKLLVYKASTLTSGVPSRFKGSGSGTQFTLTISDLECADAATYYCQINYSIYNHYNIIFGGGTEVVVKGDPVAPTVLIFPPSADLVATGTVTIVCVANKYFPDVTVTWEVDGTTQTTGIENSKTPQNSADCTYNLSSTLTLTSTQYNSHKEYTCKVTQGTTSVVQSFNRGDC
# modifications: oryctolagus cuniculus
# B2: 1F-26-1: anti-renalase monoclonal specific for renalase-1 (antigen 1F); heavy chain SEQ ID NO:25, light chain SEQ ID NO:26 (antibody)
# heavy: METGLRWLLLVAVLKGVQCQSVKESEGGLFKPTDTLTLTCTVSGFSLSSYGVTWVRQAPGNGLEWIGLIGDRGTTFYASWAKSRSTITRNTNLNTVTLKMTRLTAADTATYFCARGSGYGARIWGPGTLVTVSSWQPKAPSVFPLAPCCGDTPSSTVTLGCLVKGYLPEPVTVTWNSGTLTNGVRTFPSVRQSSGLYSLSSVVSVTSSSQPVTCNVAHPATNTKVDKTVAPSTCSKPTCPPPELLGGPSVFIFPPKPKDTLMISRTPEVTCVVVDVSQDDPEVQFTWYINNEQVRTARPPLREQQFNSTIRVVSTLPIAHQDWLRGKEFKCKVHNKALPAPIEKTISKARGQPLEPKVYTMGPPREELSSRSVSLTCMINGFYPSDISVEWEKNGKAEDNYKTTPAVLDSDGSYFLYSKLSVPTSEWQRGDVFTCSVMHEALHNHYTQKSISRSPGK
# light: MDTRAPTQLLGLLLLWLPGATFAQVLTQTPSPVSAAVGGTVTINCQSSQSVYKNNYLAWYQQKPGQPPKLLIYETSKLASGVPPRFSGSGSGTQFTLTISSVQCDDAATYYCQGGYSGVDFMAFGGGTEVVVKGDPVAPTVLIFPPSADLVATGTVTIVCVANKYFPDVTVTWEVDGTTQTTGIENSKTPQNSADCTYNLSSTLTLTSTQYNSHKEYTCKVTQGTTSVVQSFNRGDC
# modifications: oryctolagus cuniculus
# B3: 1F-42-7: anti-renalase monoclonal specific for renalase-1 (antigen 1F); heavy chain SEQ ID NO:33, light chain SEQ ID NO:34 (antibody)
# heavy: B2 heavy with S48T, S49T, F76Y, A81V, K82N, S83G, S133A
# light: B2 light with V33M, V37L, S50T, K53N, A58S, A79S
# modifications: oryctolagus cuniculus
# B4: 3A-5-2: anti-renalase monoclonal specific for renalase-2 (antigen 3A); heavy chain SEQ ID NO:41, light chain SEQ ID NO:42 (antibody)
# heavy: METGLRWLLLVAVLKGVQCQSLEESGGRLVTPGTPLTLTCTVSGFSLNNYHIYWVRQAPGKGLEYIGIIFNGGTYYARWTKGRFTISKTSTTVDLKMTSLTTEDTATYFCARGDGIWGPGTLVTVSLGQPKAPSVFPLAPCCGDTPSSTVTLGCLVKGYLPEPVTVTWNSGTLTNGVRTFPSVRQSSGLYSLSSVVSVTSSSQPVTCNVAHPATNTKVDKTVAPSTCSKPTCPPPELLGGPSVFIFPPKPKDTLMISRTPEVTCVVVDVSQDDPEVQFTWYINNEQVRTARPPLREQQFNSTIRVVSTLPIAHQDWLRGKEFKCKVHNKALPAPIEKTISKARGQPLEPKVYTMGPPREELSSRSVSLTCMINGFYPSDISVEWEKNGKAEDNYKTTPAVLDSDGSYFLYSKLSVPTSEWQRGDVFTCSVMHEALHNHYTQKSISRSPGK
# light: MDTRAPTQLLGLLLLWLPGATFAQVLTQTPASVSAAVGGTVTINCQASQSVFNNNYLAWYQQKPGQPPKRLIYSASTLASGVSSRFKGSGSGTEFTLTMSGVECDDAATYYCAGSFDCNSGDCVAFGGGTEVVVKGDPVAPTVLIFPPAADQVATGTVTIVCVANKYFPDVTVTWEVDGTTQTTGIENSKTPQNSADCTYNLSSTLTLTSTQYNSHKEYTCKVTQGTTSVVQSFNRGDC
# modifications: oryctolagus cuniculus
# B5: rRNLS: Recombinant human RNLS (renalase) (protein)
# chain: ALLRRQTSGPLYLAVWDKAEDSGGRMTTACSPHNPQCTADLGAQYITCTPHYAKKHQRFYDELLAYGVLRPLSSPIEGMVMKEGDCNFVAPQGISSIIKHYLKESGAEVYFRHRVTQINLRDDKWEVSKQTGSPEQFDLIVLTMPVPEILQLQGDITTLISECQRQQLEAVSYSSRYALGLFYEAGTKIDVPWAGQYITSNPCIRFVSIDNKKRNIESSEIGPSLVIHTTVPFGVTYLEHSIEDVQELVFQQLENILPGLPQPIATKCQKWRHSQVTNAAANCPGQMTLHHKPFLACGGDGFTQSNFDGCITSALCVLEALKNYI
# Columns and labels:
# [1] = system: melanoma cells; test: Melanoma cell lines in culture, viability/growth; assay type: cell-based, human
# Description: FIG. 19A through FIG. 19D are a series of images and charts showing that inhibition of RNLS signaling is cytotoxic to melanoma cells in vitro. […] FIG. 19B comprises two charts depicting relative cell viability: Left panel: Cells were treated with indicated antibodies for 72 hrs and cell viability was determined using WST-1; m28-RNLS (also known as 1D-28-4), m37-RNLS (also known as 1D-37-10): monoclonal antibodies raised against RNLS peptide RP220; Right panel: A375.S2 cells treated with increasing doses of m28-RNLS for 72 hrs and cell viability determined with a WST-1 assay; n=6, * indicates p<0.05 and ** indicates p<0.005. FIG. 19C comprises representative photos of A375.S2, SkMe128, and SkMe15 after 72 hrs incubation with either control rabbit IgG or m28-RNLS. FIG. 19D is a chart depicting relative cell viability, comprising amino acid (AA) sequence of RNLS peptide antagonist (RP220A).
# (§1) For additional studies, cell viability was determined using WST-1 reagent (Roche Diagnostics, Indianapolis, Ind., USA) according to the manufacturers' instruction. Absorbances were read using a microplate reader (Power Waves XS, BioTek Instruments, Winooski, Vt., USA).
# [2] = system: PDACC; test: PDACC growth with anti-RNLS antibodies, WST-1; assay type: cell-based, human; settings: 72 hrs
# Description: FIG. 25A through FIG. 25E are a series of charts and images showing that inhibition of RNLS signaling is cytotoxic to cancer cells in vitro and in vivo. FIG. 25A is a chart showing relative cell viability following transient transfection of Panc1 cells using a RNLS-specific siRNA, or a non-specific control siRNA, and cell viability assayed 96 h later using the WST-1 reagent; n=6, ** indicates p<0.001. FIG. 25B is a chart showing relative cell viability when cells were treated with indicated antibodies for 72 hrs and cell viability determined using WST-1; m28-RNLS and m37-RNLS: monoclonal antibodies raised against RNLS peptide RP220, ab31291: Abcam polyclonal antibody raised against a partial sequence of RP-220; n=6, * indicates p<0.005. […] FIG. 25D is a chart showing tumor volume increase after athymic nude mice received subcutaneous injection of Panc1 cells transduced with RNLS shRNA (sh-RNLS) or control (sh-Control); tumor volume measured every […] for up to 30 days, n=6 each; * indicates p<0.05. FIG. 25E is chart showing tumor volume increase after nude mice were xenografted with BxPC3; tumor volume measured prior to treatment every 3-4 days with 2 mg/kg of either rabbit IgG as a negative control or with m28-RNLS, n=10, * indicates p<0.05.
# [3] = system: renalase-1 and renalase-2; test: Renalase isoform specificity of anti-renalase antibodies; assay type: binding, human; settings: renalase-1 vs renalase-2
# Description: Peptides were used as immunogens. The peptides generated ranged from 9 to 21 amino acids and corresponded to regions of the renalase-1 and renalase-2 proteins. […] Each peptide was conjugated to the adjuvant KLH via the cysteine and used to immunize 6 rabbits. Antiserum collected from each animal was screened for anti-renalase antibody titer by ELISA assay using both the relevant peptide (BSA-conjugate) or full length renalase-1 or 2. The antisera were also tested for their ability to detect endogenous renalase in tissue lysates by western blot. Using these screening criteria the animals producing antibodies with the preferred characteristics were selected. In some examples and for some peptides, several animals produced antibodies with the required specificity. […] Polyclonal antibodies raised against all of the peptides were generated by purification of total IgG from terminal bleeds by protein G chromatography followed by further purification on peptide affinity chromatography. Further and using standard procedures, lymphocytes from the spleens of selected animals were fused to myeloma cells for hybridoma generation. The hybridoma supernatants were screened for binding to both the peptides against which they were raised and secondarily screened against whole renalase protein. Selected hybridomas were sub-cloned and expanded for antibody purification. The monoclonal antibodies were purified from conditioned hybridoma culture supernatant by protein A affinity chromatography.
# [4] = system: MiaPaCa2 cells; test: FACS cell cycle analysis of MiaPaCa2 cells treated with rRNLS; assay type: cell-based, human; settings: 30 μg/ml, compared to BSA
# Description: For cell cycle analysis, cultured cells were dissociated using 10 mM EDTA, fixed with ice-cold 70% ethanol, digested with RNAse A, and stained with propidium iodide. Propidium staining was detected using a BD FACSCalibur flow cytometer (BD Biosciences, San Jose, Calif., USA), and analyzed using CellQuest software.
# [5] = system: melanoma cells (A375.S2, MeWo, SkMe15, and SkMe128); test: Survival of serum-starved melanoma cells with rRNLS, WST-1; assay type: cell-based, human; settings: 30 ug/ml, 72 hrs, compared to BSA
# Description: FIG. 18A and FIG. 18B are two charts showing that RNLS overexpression favors cancer cell survival.
# as §1
# [6] = system: STAT3; test: STAT3 phosphorylation in Panc1 cells by western blot; assay type: cell-based, human; settings: addition of RNLS
# Excerpt: FIG. 27A through FIG. 27E are a series of images and charts showing the interaction between RNLS and STAT3, and the mechanistic model of inhibition by m28-RNLS. FIG. 27A is an image showing activation of STAT3 by RNLS in Panc1 cells; Panc1 cells in culture treated with either BSA or RNLS, and STAT3 phosphorylation assessed by western blot; p-Ser^727-STAT3: phosphorylation at serine 727, p-Y^705-STAT3: phosphorylation at tyrosine 705; representative study. FIG. 27B is a chart depicting the quantification of STAT3 phosphorylation with RNLS; signals normalized to total STAT3; n=3, *=P<0.05. […] FIG. 27D is a chart showing the quantification of STAT3 phosphorylation with m28-RNLS; signals normalized to GAPDH loading control; n=3, *=P<0.05. FIG. 27E depicts the proposed mechanistic model for antitumor activity of m28-RNLS.
# [7] = system: STAT3; test: STAT phosphorylation in HK-2 cells treated with RNLS; assay type: cell-based, human
molecule,measurement,setting,value
B1,melanoma cell growth/viability in culture,[1],inhibit melanoma cells in culture
same,melanoma cell growth/viability in culture,[1]; listed as D-37-10,inhibit melanoma cell growth
same,melanoma cell growth/viability in culture,[1]; listed as m37-RNLS,decreased the viability of all (total of 5) melanoma cell lines tested
same,PDACC growth,[2],inhibitory effects
same,renalase isoform specificity,[3],recognize renalase-1 and renalase-2
B2,renalase isoform specificity,[3],specific for renalase-1
B3,renalase isoform specificity,[3],specific for renalase-1
B4,renalase isoform specificity,[3],specific for renalase-2
B5,cell cycle progression,[4],no effect
same,survival of serum-starved melanoma cells,[5],markedly increased the survival
same,phosphorylated STAT3 (p-Ser727-STAT3 and p-Y705-STAT3) in Panc1,[6],rapid increase
same,increase in STAT3 phosphorylation at serine 727 (p-Ser727-STAT3),[7],2 fold
same,increase in STAT3 phosphorylation at tyrosine 705 (p-Y705-STAT3),[7],4 fold
